B1: GTGCAC_site10407 (dsDNA)
DNA 1: CCTTTTTATCTTTTTGTGCACAGACCTTTTTTAAAT
DNA 2: ATTTAAAAAAGGTCTGTGCACAAAAAGATAAAAAGG
B2: GTGCAC_site10701 (dsDNA)
DNA 1: TAATACATAAATAATGTGCACATGGAAATATATCTT
DNA 2: AAGATATATTTCCATGTGCACATTATTTATGTATTA
B3: GTGCAC_site10451 (dsDNA)
DNA 1: ATGTTATAATTTAGTGTGCACATATTAAGAGGAACA
DNA 2: TGTTCCTCTTAATATGTGCACACTAAATTATAACAT
B4: GTGCAC_site9742 (dsDNA)
DNA 1: GAAAAATTTTTATATGTGCACATGTTATATATAATT
DNA 2: AATTATATATAACATGTGCACATATAAAAATTTTTC
B5: GTGCAC_site10210 (dsDNA)
DNA 1: ATTGAATATGGATATGTGCACATATGTATATAAGTA
DNA 2: TACTTATATACATATGTGCACATATCCATATTCAAT
B6: GTGCAC_site10342 (dsDNA)
DNA 1: TTTTTAAACCATGTTGTGCACATTTTTTTTGGATTT
DNA 2: AAATCCAAAAAAAATGTGCACAACATGGTTTAAAAA
B7: GTGCAC_site9859 (dsDNA)
DNA 1: TACATAAATATATGTGTGCACAATTTCGTATATTTA
DNA 2: TAAATATACGAAATTGTGCACACATATATTTATGTA
B8: GTGCAC_site10755 (dsDNA)
DNA 1: TAATGCAACATTTATGTGCACATAAATATTTTTTAA
DNA 2: TTAAAAAATATTTATGTGCACATAAATGTTGCATTA
B9: GTGCAC_site10194 (dsDNA)
DNA 1: AATTTTCCATAGATTGTGCACAAATTTTTATTTTGT
DNA 2: ACAAAATAAAAATTTGTGCACAATCTATGGAAAATT
B10: GTGCAC_site9611 (dsDNA)
DNA 1: TATGAAACGATATATGTGCACATGAGGGAATATAGA
DNA 2: TCTATATTCCCTCATGTGCACATATATCGTTTCATA
B11: GTGCAC_site9671 (dsDNA)
DNA 1: GTTACAGAGAATGTTGTGCACATATCAATAATATAT
DNA 2: ATATATTATTGATATGTGCACAACATTCTCTGTAAC
B12: GTGCAC_site9651 (dsDNA)
DNA 1: AATCGATAAAATGTTGTGCACATATTTTTATATTTA
DNA 2: TAAATATAAAAATATGTGCACAACATTTTATCGATT
B13: GTGCAC_site10136 (dsDNA)
DNA 1: ATGATCTGTTTGTTTGTGCACATATATATATATTAA
DNA 2: TTAATATATATATATGTGCACAAACAAACAGATCAT
B14: GTGCAC_site10602 (dsDNA)
DNA 1: GTTGTATACAATAATGTGCACATATTAATTTGAACT
DNA 2: AGTTCAAATTAATATGTGCACATTATTGTATACAAC
B15: GTGCAC_site10422 (dsDNA)
DNA 1: ATCAATAAATAAAATGTGCACATAATATATTAATAC
DNA 2: GTATTAATATATTATGTGCACATTTTATTTATTGAT
B16: GTGCAC_site10327 (dsDNA)
DNA 1: AAATTATGCATCGAGGTGCGTCTTAAAATATAGTGG
DNA 2: CCACTATATTTTAAGACGCACCTCGATGCATAATTT
B17: GTGCAC_site10665 (dsDNA)
DNA 1: TATGTATATTTTTTTGTGCACATATATATATATATA
DNA 2: TATATATATATATATGTGCACAAAAAAATATACATA
B18: GTGCAC_site9801 (dsDNA)
DNA 1: ATCATCTTTATTCAAGTGCACTGAAAATTTTTTATA
DNA 2: TATAAAAAATTTTCAGTGCACTTGAATAAAGATGAT
B19: GTGCAC_site9761 (dsDNA)
DNA 1: ACATAATATACTATTGTGCACATATATATATATATA
DNA 2: TATATATATATATATGTGCACAATAGTATATTATGT
B20: GTGCAC_site9405 (dsDNA)
DNA 1: TAAAAATAGGAGTGTGTGCACATAAATTATATACTA
DNA 2: TAGTATATAATTTATGTGCACACACTCCTATTTTTA
B21: GTGCAC_site10009 (dsDNA)
DNA 1: AAATATAGAATACATGTGCACATAATATATATATAT
DNA 2: ATATATATATATTATGTGCACATGTATTCTATATTT
B22: GTGCAC_site9822 (dsDNA)
DNA 1: ATCGTGTTAAATGTTGTGCACATATAAATTACAAAA
DNA 2: TTTTGTAATTTATATGTGCACAACATTTAACACGAT
B23: GTGCAC_site10770 (dsDNA)
DNA 1: TATATACATTTTTATGTGCACATTTTATTTTTAAAT
DNA 2: ATTTAAAAATAAAATGTGCACATAAAAATGTATATA
B24: GTGCAC_site10419 (dsDNA)
DNA 1: TTTTCTTTTTTTTTTGTGCACATAATATATAATTAT
DNA 2: ATAATTATATATTATGTGCACAAAAAAAAAAGAAAA
B25: GTGCAC_site10133 (dsDNA)
DNA 1: AATTTATATAATTTTGTGCACAATATTCATGTATAT
DNA 2: ATATACATGAATATTGTGCACAAAATTATATAAATT
B26: GTGCAC_site9536 (dsDNA)
DNA 1: AATAATATACCTCTTGTGCACATATTAAAAGTTCAT
DNA 2: ATGAACTTTTAATATGTGCACAAGAGGTATATTATT
B27: GTGCAC_site9896 (dsDNA)
DNA 1: TCTTACGGATTCATTGTGCACATATATATATATATA
DNA 2: TATATATATATATATGTGCACAATGAATCCGTAAGA
B28: GTGCAC_site9812 (dsDNA)
DNA 1: TGTTTTATTTTTTTTGTGCACATACCTTTAGCATCA
DNA 2: TGATGCTAAAGGTATGTGCACAAAAAAAATAAAACA
B29: GTGCAC_site9931 (dsDNA)
DNA 1: ATAAAAATAAAAAGTGTGCACACAAAAATATATATA
DNA 2: TATATATATTTTTGTGTGCACACTTTTTATTTTTAT
B30: GTGCAC_site9596 (dsDNA)
DNA 1: TATATTTTTATGTGTGTGCACAAAATAACAAAATAT
DNA 2: ATATTTTGTTATTTTGTGCACACACATAAAAATATA
B31: GTGCAC_site9621 (dsDNA)
DNA 1: TATATATATAAGATTGTGCACATTAAAATGATAGAA
DNA 2: TTCTATCATTTTAATGTGCACAATCTTATATATATA
B32: GTGCAC_site9990 (dsDNA)
DNA 1: TATATATATGTATATGTGCACAGTTTTCTTATTAAA
DNA 2: TTTAATAAGAAAACTGTGCACATATACATATATATA

These binders were tested against T1, HDP1 homeodomain-like (Plasmodium falciparum, UniProt Q8IKH4 2990-3078) (assay: gcPBM; about 25 ug protein; PBS, 1% milk, 0.2 mg/ml BSA, salmon testes DNA, 0.03% Triton X-100). Conditions: tags: N-terminal GST (pGEX-4T-1), kept; chain copies: 2; label: surface-attached array probe.
T1 sequence: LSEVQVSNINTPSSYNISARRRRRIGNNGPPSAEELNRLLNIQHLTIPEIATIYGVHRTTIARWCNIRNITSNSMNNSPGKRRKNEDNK
B1 was tested, and the binding signal was 11.2 ln median PBM intensity, better of two orientations.
In the case of B2, the binding signal is reported as 11.2 ln median PBM intensity, better of two orientations.
In the case of B3, the binding signal is reported as 11.4 ln median PBM intensity, better of two orientations.
B4 was tested, and the binding signal was 11.2 ln median PBM intensity, better of two orientations.
B5 was tested, and the binding signal was 11.1 ln median PBM intensity, better of two orientations.
For B6, the binding signal was 11.3 ln median PBM intensity, better of two orientations.
In the case of B7, the binding signal is reported as 11.1 ln median PBM intensity, better of two orientations.
With B8 the binding signal was 11.4 ln median PBM intensity, better of two orientations.
In the case of B9, the binding signal is reported as 11.3 ln median PBM intensity, better of two orientations.
With B10 the binding signal was 11.3 ln median PBM intensity, better of two orientations.
With B11 the binding signal was 11.4 ln median PBM intensity, better of two orientations.
For B12, the binding signal was 11.2 ln median PBM intensity, better of two orientations.
For B13, the binding signal was 11.3 ln median PBM intensity, better of two orientations.
B14 was tested, and the binding signal was 11.2 ln median PBM intensity, better of two orientations.
With B15 the binding signal was 11.1 ln median PBM intensity, better of two orientations.
In the case of B16, the binding signal is reported as 11.2 ln median PBM intensity, better of two orientations.
With B17 the binding signal was 11.3 ln median PBM intensity, better of two orientations.
In the case of B18, the binding signal is reported as 11.2 ln median PBM intensity, better of two orientations.
B19 was tested, and the binding signal was 11.2 ln median PBM intensity, better of two orientations.
For B20, the binding signal was 11.2 ln median PBM intensity, better of two orientations.
B21 was tested, and the binding signal was 11.3 ln median PBM intensity, better of two orientations.
For B22, the binding signal was 11.3 ln median PBM intensity, better of two orientations.
B23 was tested, and the binding signal was 11.4 ln median PBM intensity, better of two orientations.
For B24, the binding signal was 11.2 ln median PBM intensity, better of two orientations.
In the case of B25, the binding signal is reported as 11.2 ln median PBM intensity, better of two orientations.
B26 was tested, and the binding signal was 11.3 ln median PBM intensity, better of two orientations.
With B27 the binding signal was 11.1 ln median PBM intensity, better of two orientations.
In the case of B28, the binding signal is reported as 11.4 ln median PBM intensity, better of two orientations.
In the case of B29, the binding signal is reported as 11.3 ln median PBM intensity, better of two orientations.
With B30 the binding signal was 11.4 ln median PBM intensity, better of two orientations.
B31 was tested, and the binding signal was 11.1 ln median PBM intensity, better of two orientations.
In the case of B32, the binding signal is reported as 11.1 ln median PBM intensity, better of two orientations.
